# Results taken from publication PMC3397958, “Molecular Characterization of NAD^+-Dependent DNA Ligase from Wolbachia Endosymbiont of Lymphatic Filarial Parasite Brugia malayi” (PLoS ONE, 2012).
# Substrate: NC(=O)c1ccc[n+]([C@@H]2O[C@H](COP(=O)(O)OP(=O)(O)OC[C@H]3O[C@@H](n4cnc5c(N)ncnc54)[C@H](O)[C@@H]3O)[C@@H](O)[C@H]2O)c1
# Test: nick closing activity; fluorescein-labelled oligonucleotide ligated to biotinylated oligonucleotide on streptavidin plate
# Assay type: biochemical, Wolbachia endosymbiont of Brugia malayi
# Conditions: nicked DNA duplex substrate, 20 mM Tris-HCl pH 8.0, 10 mM MgCl2, 10 mM (NH4)2SO4, 1.2 mM EDTA, 25 °C, 5 nM enzyme, NAD+ 0-30 µM, varied: cofactor
protein,measurement,value
"wBm-LigA (NAD+-dependent DNA ligase of Wolbachia endosymbiont of Brugia malayi) (Wolbachia endosymbiont strain TRS of Brugia malayi) (protein, full length, 683 residues (ORF 2052 bp), pET28a(+), His6 tags at N and C terminus kept, expressed in E. coli Rosetta, Ni-NTA purified, ~75 kDa) MADLEKMIEEFTKLRDQISYHDVLYHQKSKPEIADAEYDKLKQKLVEMEGQLPGACVTQDGVGAAPDEKFSKIKHREPMLSLENAYDEQGVERFLSRIKRFLIEEEIEVFCEPKIDGLSFSAVYEDGRFVKAATRGDGFIGEDVTRNVATIKGFPRFLQDVQDRLEVRGEIYINNSDFLKLNKDNEFANPRNAAAGSLKQLDVSITANRPLKYFAYSLIGGKEKSQSEVLNRLESLGFCVNEHRSLTNNLSGMLEFYNKVYNCRYSLDYDIDGIVYKVNDLILQSRLGSTHKAPRSALAYKFSAVYAKTKLNKIFIQVGRTGVLTPVADLIPVNIGGVLVSRANLHNQDEIKRKDVREGDIVTIKRAGDVIPQIVRVDKGSRHADAPGFVFPEICPECGGKVQAEGAAIRCSEELTCKAQIIGKLSHFVSKGAFDIFGLGEKQIKFFYDLGLIKQIPDIFNLEERLNEFSLKEQPDWGERSIANLLNAIQNRRVITLDRFIFSLGIRFIGQVAAELLANYYVSYNNWYNSMIKLLSNDAEVGVGGVEKKIAKSFSDELVGIDGIGEKVAESLKSFFSKEHNIKMLKDLTDYLQILSVNSNSSNSVLNNKVIVFTGKLLTMSRGEAKVRAKALGAKVSSNLSAKIDYLVAGEKPGNKYKKAVELGVGILNEDQWYRMINSEVSE",Km,4.8 µM
